According to US20260001928A1 (CORTERIA PHARMACEUTICALS, priority 2022, published 2026):
*1 amine or outer side, *2 acyl side, *3 side chain or, on linkers, in order; H or OH if unused. Where no end group is shown, it is not given here. Side-chain parts run from the residue outwards. [ ]: non-standard residue; d: D form. The star is where a group is joined. C20 diacid = O=C(O)CCCCCCCCCCCCCCCCCCC(=O)*; C16 diacid = O=C(O)CCCCCCCCCCCCCCC(=O)*; γGlu = O=C(O)[C@H](CCC(=O)[*:2])N[*:1]; NMeI = CC[C@H](C)[C@H](NC)C(=O)O; Aib = CC(C)(N)C(=O)O

T1: CRF1R receptor (UniProt P34998 24-415, limits assumed)
T1 sequence (looked up): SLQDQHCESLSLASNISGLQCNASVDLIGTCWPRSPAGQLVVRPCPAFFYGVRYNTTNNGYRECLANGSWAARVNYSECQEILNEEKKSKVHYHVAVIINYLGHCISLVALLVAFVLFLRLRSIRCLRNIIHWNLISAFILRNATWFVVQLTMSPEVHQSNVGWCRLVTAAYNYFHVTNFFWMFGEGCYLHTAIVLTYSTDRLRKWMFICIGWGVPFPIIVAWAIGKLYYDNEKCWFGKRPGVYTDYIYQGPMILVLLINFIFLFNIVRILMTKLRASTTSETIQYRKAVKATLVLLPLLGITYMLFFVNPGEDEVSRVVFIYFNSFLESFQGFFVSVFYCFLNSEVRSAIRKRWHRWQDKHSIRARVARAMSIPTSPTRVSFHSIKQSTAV

B1: SEQ ID NO 213 (peptide)
peptide: Ac-IVLSLD[dV]PIKLK([γGlu-C20 diacid])KILLEQEKQKEQREQAETN[Aib]QILAQV-NH2
SMILES: CC[C@H](C)[C@H](NC(C)=O)C(=O)N[C@H](C(=O)N[C@@H](CC(C)C)C(=O)N[C@@H](CO)C(=O)N[C@@H](CC(C)C)C(=O)N[C@@H](CC(=O)O)C(=O)N[C@@H](C(=O)N1CCC[C@H]1C(=O)N[C@H](C(=O)N[C@@H](CCCCN)C(=O)N[C@@H](CC(C)C)C(=O)N[C@@H](CCCCNC(=O)CC[C@H](NC(=O)CCCCCCCCCCCCCCCCCCC(=O)O)C(=O)O)C(=O)N[C@@H](CCCCN)C(=O)N[C@H](C(=O)N[C@@H](CC(C)C)C(=O)N[C@@H](CC(C)C)C(=O)N[C@@H](CCC(=O)O)C(=O)N[C@@H](CCC(N)=O)C(=O)N[C@@H](CCC(=O)O)C(=O)N[C@@H](CCCCN)C(=O)N[C@@H](CCC(N)=O)C(=O)N[C@@H](CCCCN)C(=O)N[C@@H](CCC(=O)O)C(=O)N[C@@H](CCC(N)=O)C(=O)N[C@@H](CCCNC(=N)N)C(=O)N[C@@H](CCC(=O)O)C(=O)N[C@@H](CCC(N)=O)C(=O)N[C@@H](C)C(=O)N[C@@H](CCC(=O)O)C(=O)N[C@H](C(=O)N[C@@H](CC(N)=O)C(=O)NC(C)(C)C(=O)N[C@@H](CCC(N)=O)C(=O)N[C@H](C(=O)N[C@@H](CC(C)C)C(=O)N[C@@H](C)C(=O)N[C@@H](CCC(N)=O)C(=O)N[C@H](C(N)=O)C(C)C)[C@@H](C)CC)[C@@H](C)O)[C@@H](C)CC)[C@@H](C)CC)C(C)C)C(C)C
B2: SEQ ID NO 212 (peptide)
peptide: Ac-IVLSLD[dV]PIKLK([γGlu-C20 diacid])KILLEQEKQKAQREQAETN[Aib]QILAQV-NH2
SMILES: CC[C@H](C)[C@H](NC(C)=O)C(=O)N[C@H](C(=O)N[C@@H](CC(C)C)C(=O)N[C@@H](CO)C(=O)N[C@@H](CC(C)C)C(=O)N[C@@H](CC(=O)O)C(=O)N[C@@H](C(=O)N1CCC[C@H]1C(=O)N[C@H](C(=O)N[C@@H](CCCCN)C(=O)N[C@@H](CC(C)C)C(=O)N[C@@H](CCCCNC(=O)CC[C@H](NC(=O)CCCCCCCCCCCCCCCCCCC(=O)O)C(=O)O)C(=O)N[C@@H](CCCCN)C(=O)N[C@H](C(=O)N[C@@H](CC(C)C)C(=O)N[C@@H](CC(C)C)C(=O)N[C@@H](CCC(=O)O)C(=O)N[C@@H](CCC(N)=O)C(=O)N[C@@H](CCC(=O)O)C(=O)N[C@@H](CCCCN)C(=O)N[C@@H](CCC(N)=O)C(=O)N[C@@H](CCCCN)C(=O)N[C@@H](C)C(=O)N[C@@H](CCC(N)=O)C(=O)N[C@@H](CCCNC(=N)N)C(=O)N[C@@H](CCC(=O)O)C(=O)N[C@@H](CCC(N)=O)C(=O)N[C@@H](C)C(=O)N[C@@H](CCC(=O)O)C(=O)N[C@H](C(=O)N[C@@H](CC(N)=O)C(=O)NC(C)(C)C(=O)N[C@@H](CCC(N)=O)C(=O)N[C@H](C(=O)N[C@@H](CC(C)C)C(=O)N[C@@H](C)C(=O)N[C@@H](CCC(N)=O)C(=O)N[C@H](C(N)=O)C(C)C)[C@@H](C)CC)[C@@H](C)O)[C@@H](C)CC)[C@@H](C)CC)C(C)C)C(C)C
B3: SEQ ID NO 214 (peptide)
peptide: [NMeI]VLSLD[dV]PIKLK([γGlu-C20 diacid])KILLEQEKQKKQREQAETN[Aib]QILAQV-NH2
modifications: N-terminus assumed
SMILES: CC[C@H](C)[C@H](NC)C(=O)N[C@H](C(=O)N[C@@H](CC(C)C)C(=O)N[C@@H](CO)C(=O)N[C@@H](CC(C)C)C(=O)N[C@@H](CC(=O)O)C(=O)N[C@@H](C(=O)N1CCC[C@H]1C(=O)N[C@H](C(=O)N[C@@H](CCCCN)C(=O)N[C@@H](CC(C)C)C(=O)N[C@@H](CCCCNC(=O)CC[C@H](NC(=O)CCCCCCCCCCCCCCCCCCC(=O)O)C(=O)O)C(=O)N[C@@H](CCCCN)C(=O)N[C@H](C(=O)N[C@@H](CC(C)C)C(=O)N[C@@H](CC(C)C)C(=O)N[C@@H](CCC(=O)O)C(=O)N[C@@H](CCC(N)=O)C(=O)N[C@@H](CCC(=O)O)C(=O)N[C@@H](CCCCN)C(=O)N[C@@H](CCC(N)=O)C(=O)N[C@@H](CCCCN)C(=O)N[C@@H](CCCCN)C(=O)N[C@@H](CCC(N)=O)C(=O)N[C@@H](CCCNC(=N)N)C(=O)N[C@@H](CCC(=O)O)C(=O)N[C@@H](CCC(N)=O)C(=O)N[C@@H](C)C(=O)N[C@@H](CCC(=O)O)C(=O)N[C@H](C(=O)N[C@@H](CC(N)=O)C(=O)NC(C)(C)C(=O)N[C@@H](CCC(N)=O)C(=O)N[C@H](C(=O)N[C@@H](CC(C)C)C(=O)N[C@@H](C)C(=O)N[C@@H](CCC(N)=O)C(=O)N[C@H](C(N)=O)C(C)C)[C@@H](C)CC)[C@@H](C)O)[C@@H](C)CC)[C@@H](C)CC)C(C)C)C(C)C
B4: SEQ ID NO 215 (peptide)
peptide: [NMeI]VLSLD[dV]PIKLK([γGlu-C20 diacid])KILLEQEKQK[Aib]QREQAETN[Aib]QILAQV-NH2
modifications: N-terminus assumed
SMILES: CC[C@H](C)[C@H](NC)C(=O)N[C@H](C(=O)N[C@@H](CC(C)C)C(=O)N[C@@H](CO)C(=O)N[C@@H](CC(C)C)C(=O)N[C@@H](CC(=O)O)C(=O)N[C@@H](C(=O)N1CCC[C@H]1C(=O)N[C@H](C(=O)N[C@@H](CCCCN)C(=O)N[C@@H](CC(C)C)C(=O)N[C@@H](CCCCNC(=O)CC[C@H](NC(=O)CCCCCCCCCCCCCCCCCCC(=O)O)C(=O)O)C(=O)N[C@@H](CCCCN)C(=O)N[C@H](C(=O)N[C@@H](CC(C)C)C(=O)N[C@@H](CC(C)C)C(=O)N[C@@H](CCC(=O)O)C(=O)N[C@@H](CCC(N)=O)C(=O)N[C@@H](CCC(=O)O)C(=O)N[C@@H](CCCCN)C(=O)N[C@@H](CCC(N)=O)C(=O)N[C@@H](CCCCN)C(=O)NC(C)(C)C(=O)N[C@@H](CCC(N)=O)C(=O)N[C@@H](CCCNC(=N)N)C(=O)N[C@@H](CCC(=O)O)C(=O)N[C@@H](CCC(N)=O)C(=O)N[C@@H](C)C(=O)N[C@@H](CCC(=O)O)C(=O)N[C@H](C(=O)N[C@@H](CC(N)=O)C(=O)NC(C)(C)C(=O)N[C@@H](CCC(N)=O)C(=O)N[C@H](C(=O)N[C@@H](CC(C)C)C(=O)N[C@@H](C)C(=O)N[C@@H](CCC(N)=O)C(=O)N[C@H](C(N)=O)C(C)C)[C@@H](C)CC)[C@@H](C)O)[C@@H](C)CC)[C@@H](C)CC)C(C)C)C(C)C
B5: SEQ ID NO 217 (peptide)
peptide: [NMeI]VLSLD[dV]PIKLK([γGlu-C20 diacid])KILLEQEKQKAQREQAETN[Aib]QILAQV-NH2
modifications: N-terminus assumed
SMILES: CC[C@H](C)[C@H](NC)C(=O)N[C@H](C(=O)N[C@@H](CC(C)C)C(=O)N[C@@H](CO)C(=O)N[C@@H](CC(C)C)C(=O)N[C@@H](CC(=O)O)C(=O)N[C@@H](C(=O)N1CCC[C@H]1C(=O)N[C@H](C(=O)N[C@@H](CCCCN)C(=O)N[C@@H](CC(C)C)C(=O)N[C@@H](CCCCNC(=O)CC[C@H](NC(=O)CCCCCCCCCCCCCCCCCCC(=O)O)C(=O)O)C(=O)N[C@@H](CCCCN)C(=O)N[C@H](C(=O)N[C@@H](CC(C)C)C(=O)N[C@@H](CC(C)C)C(=O)N[C@@H](CCC(=O)O)C(=O)N[C@@H](CCC(N)=O)C(=O)N[C@@H](CCC(=O)O)C(=O)N[C@@H](CCCCN)C(=O)N[C@@H](CCC(N)=O)C(=O)N[C@@H](CCCCN)C(=O)N[C@@H](C)C(=O)N[C@@H](CCC(N)=O)C(=O)N[C@@H](CCCNC(=N)N)C(=O)N[C@@H](CCC(=O)O)C(=O)N[C@@H](CCC(N)=O)C(=O)N[C@@H](C)C(=O)N[C@@H](CCC(=O)O)C(=O)N[C@H](C(=O)N[C@@H](CC(N)=O)C(=O)NC(C)(C)C(=O)N[C@@H](CCC(N)=O)C(=O)N[C@H](C(=O)N[C@@H](CC(C)C)C(=O)N[C@@H](C)C(=O)N[C@@H](CCC(N)=O)C(=O)N[C@H](C(N)=O)C(C)C)[C@@H](C)CC)[C@@H](C)O)[C@@H](C)CC)[C@@H](C)CC)C(C)C)C(C)C
B6: SEQ ID NO 216 (peptide)
peptide: [NMeI]VLSLD[dV]PIKLK([γGlu-C20 diacid])KILLEQEAQKKQREQAETN[Aib]QILAQV-NH2
modifications: N-terminus assumed
SMILES: CC[C@H](C)[C@H](NC)C(=O)N[C@H](C(=O)N[C@@H](CC(C)C)C(=O)N[C@@H](CO)C(=O)N[C@@H](CC(C)C)C(=O)N[C@@H](CC(=O)O)C(=O)N[C@@H](C(=O)N1CCC[C@H]1C(=O)N[C@H](C(=O)N[C@@H](CCCCN)C(=O)N[C@@H](CC(C)C)C(=O)N[C@@H](CCCCNC(=O)CC[C@H](NC(=O)CCCCCCCCCCCCCCCCCCC(=O)O)C(=O)O)C(=O)N[C@@H](CCCCN)C(=O)N[C@H](C(=O)N[C@@H](CC(C)C)C(=O)N[C@@H](CC(C)C)C(=O)N[C@@H](CCC(=O)O)C(=O)N[C@@H](CCC(N)=O)C(=O)N[C@@H](CCC(=O)O)C(=O)N[C@@H](C)C(=O)N[C@@H](CCC(N)=O)C(=O)N[C@@H](CCCCN)C(=O)N[C@@H](CCCCN)C(=O)N[C@@H](CCC(N)=O)C(=O)N[C@@H](CCCNC(=N)N)C(=O)N[C@@H](CCC(=O)O)C(=O)N[C@@H](CCC(N)=O)C(=O)N[C@@H](C)C(=O)N[C@@H](CCC(=O)O)C(=O)N[C@H](C(=O)N[C@@H](CC(N)=O)C(=O)NC(C)(C)C(=O)N[C@@H](CCC(N)=O)C(=O)N[C@H](C(=O)N[C@@H](CC(C)C)C(=O)N[C@@H](C)C(=O)N[C@@H](CCC(N)=O)C(=O)N[C@H](C(N)=O)C(C)C)[C@@H](C)CC)[C@@H](C)O)[C@@H](C)CC)[C@@H](C)CC)C(C)C)C(C)C

What was measured:
[1] = target: human corticotropin-releasing factor 2a (CRF2a receptor) (human), Q13324; assay: cell-based or functional assay
[2] = target: T1, CRF1R receptor; assay: cell-based or functional assay

human corticotropin-releasing factor 2a (CRF2a receptor) (human), Q13324, sequence (Q13324 20-411): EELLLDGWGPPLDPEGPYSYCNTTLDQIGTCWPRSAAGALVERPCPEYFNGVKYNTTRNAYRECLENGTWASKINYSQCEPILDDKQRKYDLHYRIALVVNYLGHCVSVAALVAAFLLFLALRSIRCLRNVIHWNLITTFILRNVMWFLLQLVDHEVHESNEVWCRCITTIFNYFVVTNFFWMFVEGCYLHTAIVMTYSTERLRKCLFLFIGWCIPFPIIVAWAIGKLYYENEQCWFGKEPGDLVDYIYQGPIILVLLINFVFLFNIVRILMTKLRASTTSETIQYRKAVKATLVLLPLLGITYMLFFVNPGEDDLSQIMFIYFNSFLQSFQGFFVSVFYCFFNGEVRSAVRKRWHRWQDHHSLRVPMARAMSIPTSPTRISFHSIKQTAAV

| Binder | EC50 [nM] (cAMP) [1] | Emax (% I) [2] | EC50 [2] |
| --- | --- | --- | --- |
| B1 | 0.22 nM | 27% | – |
| B2 | 0.11 nM | 41% | 229000 pM |
| IVLSLD[dV]PIKLK([γGlu-C16 diacid])QILLKQERQKKQREQAEKN[Aib]QILEQV-NH2 [SEQ ID NO 10] | 0.17 nM | 26% | > 250000 pM |
| B3 | 0.12 nM | 34% | – |
| B4 | 0.12 nM | 19% | – |
| B5 | 0.09 nM | 33% | – |
| B6 | 0.05 nM | 61% | 80300 pM |
